Results reported in patent US11028159B2 (priority 2017, dated 2021).

System: venoms of different snake species
Type: binding

B1: VHH candidate against cobrotoxin: camelid (llama) single-domain VHH antibody binding cobrotoxin, SEQ ID NO 4 (protein)
VHH: MAQVQLQESGGGLAQAGGSLRLSCSASRNIFRVYGWYRQAPGKQREWVASITRDDSTAYADSVKGRFTISRDSAKNTMYLQMSSLRLEDTSTYYCAAQSISGTIQWGQGTQVTVSSTSGPGGQHHHHHHGAEQKLISEEDLS
number of venoms of different snake species bound (ELISA): at least 6
